Patent US20010023068

System: G-protein beta/gamma subunits (Gβγ)

Row | Substance | fold stimulation of 32P incorporation into PIP3 in the presence of Gβγ over that in its absence | pmol incorporation of 32P into PIP3, Plus Gβγ [pmol] | fold stimulation of 32P incorporation into PIP3 in the presence of Gβγ over basal activity
1 | p110g/SVP4b heterodimer (GFP-fusion tagged p110gamma co-expressed with SVP4b in SF21 cells) | a 9.4 fold stimulation of ^32P incorporation into PIP3 over that seen in the absence of Gβγ was seen with the p110g/SVP4b heterodimer | 10.3 | –
2 | p110g/p101 heterodimer (GFP-fusion tagged p110gamma co-expressed with full length p101 in SF21 cells) | – | 13.5 | the p101/p101 heterodimer produced a 4.6 fold stimulation over basal activity in the presence of Gβγ
